Reference: PMC2910095 (Biochemistry, 2010)
Values joined by “and” are separate entries in the source; they are usually repeats but may differ in a detail not shown here. Identical values can stand only once.

Key:
[1] = molecular target: p33/p55 complex (86 kDa, monomeric complex) (Helicobacter pylori strain 60190); assay: negative-stain electron microscopy
[2] = molecular target: purified recombinant VacA p55 domain (Helicobacter pylori strain 60190); assay: SEC
[3] = molecular target: recombinant refolded VacA p33 domain (Helicobacter pylori strain 60190); assay: SEC
[4] = molecular target: the molecule itself; assay: negative-stain electron microscopy

“p33/p55 complex (86 kDa, monomeric complex)” was tested, and the stoichiometry N [1] was 6 and 7 and 12.

Work on “recombinant refolded VacA p33 domain (domain or fragment)” yielded a stoichiometry N [2] of 1 and a stoichiometry N [3] of 3.

B1: p88 VacA purified from H. pylori broth culture supernatant (natural protein)
chain: AFFTTVIIPAIVGGIATGTAVGTVSGLLGWGLKQAEEANKTPDKPDKVWRIQAGKGFNEFPNKEYDLYKSLLSSKIDGGWDWGNAATHYWIKGGQWNKLEVDMKDAVGTYKLSGLRNFTGGDLDVNMQKATLRLGQFNGNSFTSYKDSADRTTRVDFNAKNILIDNFLEINNRVGSGAGRKASSTVLTLQASEGITSSKNAEISLYDGATLNLASNSVKLNGNVWMGRLQYVGAYLAPSYSTINTSKVTGEVNFNHLTVGDHNAAQAGIIASNKTHIGTLDLWQSAGLNIIAPPEGGYKDKPNNTPSQSGAKNDKQESSQNNSNTQVINPPNSTQKTEVQPTQVIDGPFAGGKDTVVNIDRINTKADGTIKVGGFKASLTTNAAHLNIGKGGVNLSNQASGRTLLVENLTGNITVDGPLRVNNQVGGYALAGSSANFEFKAGVDTKNGTATFNNDISLGRFVNLKVDAHTANFKGIDTGNGGFNTLDFSGVTNKVNINKLITASTNVAVKNFNINELIVKTNGVSVGEYTHFSEDIGSQSRINTVRLETGTRSIFSGGVKFKSGEKLVIDEFYYSPWNYFDARNIKNVEITRKFASSTPENPWGTSKLMFNNLTLGQNAVMDYSQFSNLTIQGDFINNQGTINYLVRGGKVATLNVGNAAAMMFNNDIDSATGFYKPLIKINSAQDLIKNTEHVLLKAKIIGYGNVSTGTNGISNVNLEEQFKERLALYNNNNRMDTCVVRNTDDIKACGMAIGNQSMVNNPDNYKYLIGKAWKNIGISKTANGSKISVYYLGNSTPTENGGNTTNLPTNTTNNARFASYA
With B1 the “stoichiometry N” value [4] was 6 and 7 and 12 to 14 (2×).
